{
  "source": "the DeepSol protein solubility set",
  "data": [
    {"experiment": "soluble on expression in E. coli; label from the status in PepcDB or PDB records", "values": [
      {"sequence": "SALAVEADPAADRVSSLSNVSGVLGSQWGDEGKGKLVDVLAPRFDIVARCQGGANAGHTIYNSEGKKFALHLVPSGILHEGTLCVVGNGAVIHVPGFFGEIDGLQSNGVSCDGRILVSDRAHLLFDLHQTVDGLREAELANSFIGTTKRGIGPCYSSKVTRNGLRVCDLRHMDTFGDKLDVLFEDAAARFEGFKYSKGMLKEEVERYKKFAERLEPFIADTVHVLNESIRQKKKILVEGGQATMLDIDFGTYPFVTSSSPSAGGICTGLGIAPRVIGDLIGVVKAYTTRVGSGPFPTELLGEEGDVLRKAGMEFGTTTGRPRRCGWLDIVALKYCCDINGFSSLNLTKLDVLSGLPEIKLGVSYNQMDGEKLQSFPGDLDTLEQVQVNYEVLPGWDSDISSVRSYSELPQAARRYVERIEELAGVPVHYIGVGPGRDALIYK", "soluble on expression in E. coli": "soluble"},
      {"sequence": "MNEKTINEQYAYIRTLLEEKRLKEALMQLESLLWQCPDWDLRTRLEQLQTSYKYMLEYMRQGANDPERWNVYRKLIADTWEIADRSRLLMLDNASSRYYHEVRRTPRPESLSAYTLKKLLHMLESFNDDLAVSGLLSDEKMDEVLKRHEETLKYMFLQTWTNSAWTPEEEEDAQSMLTSELLPVNDLCLFISAVTLSLMECFDLRKIMWLLDAYRHPDVNAGQRALVGVIFIFHIYKNRLSLYNDLVKRVDLMDEISPFKEDVARIYHQMLLCQETEKIDKKMREEIIPEMLKNVSSMRNMRFGFEENEDENDDKNPDWADAFEQSGLGDKLREMNELQLEGADVYMSTFAALKSYPFFREVQNWFYPFSKQQSDVIKQLKQEGNEKNTLLDLILQSGFFSNSDKYSLFFTIRQLPKAQQDMMLSQLGEQQVAELTEKSSAETMKKFNERPGTVSNQYLHDLYRFFKLSVRRHEFRDIFKEKLDLHHIPALSNVLYSEDILFPIADFYLKKERWNEAIEVYEEMETIGALQERGAEYYQKLGYALQKSKKYAEAIGAYLKADTLKPDNIWNNRHLAICYRLNRNYQAALSYYKKVEEATPEDTNVIFHIGSCLAELGQYEEAANYFFKLDFIESNCIKAWRGIGWCSFISRKYEQAMKYYEKIIEQKPLAIDYMNAGHVAWTMGDIQKAAALYGKSITANGNRERFLEMFRKDEEALLKQGIQEEDIPLMLDLL", "soluble on expression in E. coli": "not soluble"},
      {"sequence": "AHHHHHHGSRMRQEERKFVELVERIMERWGYDRTGGKIYGILLLSNKPLTISELSKITGLSRSSVSVALSKLTREYLVTYTKEKKTKYFYAVPAFLEKFLKQPKEILEREIKPLKEIVVKLAEKSNEEEKARFEAILSDLLTLECVLKKIIELEEKESECLKK", "soluble on expression in E. coli": "not soluble"},
      {"sequence": "MSLKNTFVYQAEKPVIKLLQITDPHLFKDESAELLGVNTQASFAQVLKEIQQENNEFDVILATGDLVQDSSDEGYIRFVEMMKPFNKPVFWIPGNHDFQPKMAEFLNQPPMNAAKHLLLGEHWQALLLDSQVYGVPHGQLSQHQLDLLKETLGKNPERYTLVVLHHHLLPTNSAWLDQHNLRNSHELAEVLAPFTNVKAILYGHIHQEVNSEWNGYQVMATPATCIQFKPDCQYFSLDTLQPGWREIELHSDGSIRTEVKRIQQAEFFPNMQEEGYEGGSHHHHHH", "soluble on expression in E. coli": "soluble"},
      {"sequence": "MTHYKYYEANVETNQVLVLLHGFLSDSRTYYNHIDKYTDICHVITIDLPGHGEDQSSMDETWNFDYITTLLDRILDKYKDKSITLFGYSMGGRVALYYAINGHIPISNLILESTSPGIKEEANQLERRLVDDARAKVLDIAGIELFVNDWEKLPLFQSQLELPVEIQHQIRLQRLSQSPQKMAKALRDYGTGQMPNLWPRLKEIKVPTLILAGEYDEKFVQIAKKMANLIPNSKCKLISATGHTIHVEDSDEFDTMILGFLKEEQND", "soluble on expression in E. coli": "not soluble"},
      {"sequence": "MGSDKIHHHHHHQMEERLGNTSQELQSLQVQNIKLAGSLQHVAEKLCRELYNKAGAHRCSPCTEQWKWHGDNCYQFYKDSKSWEDCKYFCLSENSTMLKINKQEDLEFAASQSYSEFFYSYWTGLLRPDSGKAWLWMDGTPFTSELFHIIIDVTSPRSRDCVAILNGMIFSKDCKELKRCVCERRAGMVKPE", "soluble on expression in E. coli": "not soluble"},
      {"sequence": "MGSDKIHHHHHHMVDVEEKSQEVEYVDPTVNRVPNYEVSEKAFLLTQSKVSIEQRKEAAEFVLAKIKEEEMAPYYKYLCEEYLVNNGQSDLEHDEKSDSLNEWIKFDQELYNELCKKNESKIKELNEKIQKLEEDDEGELEQAQAWINLGEYYAQIGDKDNAEKTLGKSLSKAISTGAKIDVMLTIARLGFFYNDQLYVKEKLEAVNSMIEKGGDWERRNRYKTYYGIHCLAVRNFKEAAKLLVDSLATFTSIELTSYESIATYASVTGLFTLERTDLKSKVIDSPELLSLISTTAALQSISSLTISLYASDYASYFPYLLETYANVLIPCKYLNRHADFFVREMRRKVYAQLLESYKTLSLKSMASAFGVSVAFLDNDLGKFIPNKQLNCVIDRVNGIVETNRPDNKNAQYHLLVKQGDGLLTKLQKYGAAVRLTGSDRV", "soluble on expression in E. coli": "not soluble"},
      {"sequence": "MIVKTEEELQALKEIGYICAKVRNTMQAATKPGITTKELDNIAKELFEEYGAISAPIHDENFPGQTCISVNEEVAHGIPSKRVIREGDLVNIDVSALKNGYYADTGISFVVGESDDPMKQKVCDVATMAFENAIAKVKPGTKLSNIGKAVHNTARQNDLKVIKNLTGHGVGLSLHEAPAHVLNYFDPKDKTLLTEGMVLAIEPFISSNASFVTEGKNEWAFETSDKSFVAQIEHTVIVTKDGPILTTKIEEE", "soluble on expression in E. coli": "soluble"},
      {"sequence": "MDVENEQILNVNPADPDNLSDSLFSGDEENAGTEEVKNEINGNWISAYSINEARINAKAKRRLRKNSSRDSGRGDSVSDSGSDALRSGLTVPTSPKGRLLDRRSRSGKGRGLPKKGGAGGKGVWGTPGQVYDVEEVDVKDPNYDDDQENCVYETVVLPLDERAFEKTLTPIIQEYFEHGDTNEVAEMLRDLNLGEMKSGVPVLAVSLALEGKASHREMTSKLLSDLCGTVMSTTDVEKSFDKLLKDLPELALDTPRAPQLVGQFIARAVGDGILCNTYIDSYKGTVDCVQARAALDKATVLLSMSKGGKRKDSVWGSGGGQQSVNHLVKEIDMLLKEYLLSGDISEAEHCLKELEVPHFHHELVYEAIIMVLESTGESTFKMILDLLKSLWKSSTITVDQMKRGYERIYNEIPDINLDVPHSYSVLERFVEECFQAGIISKQLRDLCPSRGRKRFVSEGDGGRLKPESY", "soluble on expression in E. coli": "soluble"},
      {"sequence": "MSLAVEKITMPKLGESVTEGTISSWLVKPGDTVEKYDAIAEVLTDKVTAEIPSSFSGTIKEILAEEDETLEVGEVICTIETADAGSSEPVAEVEETETKAPEKQETKQVKLADAPASGRFSPAVLRIAGENNIDLSTVEGTGKGGRITRKDLLQVIENGPVAKREEMKSAPQEKAAMPTPPVRSAAGDKEIPINGVRKAIAKHMSVSKQEIPHAWMMVEVDATGLVRYRNAVKDSFKKEEGYSLTYFAFFIKAVAQALKEFPQLNSTWAGDKIIEHANINISIAIAAGDLLYVPVIKNADEKSIKGIAREISELAGKARNGKLSQADMEGGTFTVNSTGSFGSVQSMGIINHPQAAILQVESIVKRPVIIDDMIAVRDMVNLCLSIDHRILDGLLAGKFLQAIKANVEKISKENTALYEGHHHHHH", "soluble on expression in E. coli": "soluble"},
      {"sequence": "KVKFTEEEDLKLQQLVMRYGAKDWIRISQLMITRNPRQCRERWNNYINPALRTDPWSPEEDMLLDQKYAEYGPKWNKISKFLKNRSDNNIRNRWMMIARHRAKHQKS", "soluble on expression in E. coli": "soluble"},
      {"sequence": "SLKIFTSKKGQLSQLKQQKFKLEKDIQRLFEENLTLLSGYIFIRSEFSIKNSRIDTLAFDPETQAFVIIEYKRQQNSSVVDQGISYLNLMLEYKADFIVEYNEKQKVPLKRNDVDWSQSKVIFVSPAFNDFQIQATNFKDLPIELWEVNRFDNDIITLNIINKSKSAPNIKAVSNEKREEFSILKEIKVYQESDHLADKTDFIQELYEDFKQGILNLDPDIEINTRKLYIAFKKDRNIADIRIQQKNLKIWINLPYGELDDPKNLAKNVSNTGHWGNGDYEITIESTQYLEYIMSLIKQAIKD", "soluble on expression in E. coli": "soluble"},
      {"sequence": "MGHHHHHHSHMEPGEELEEEGSPGGREDGFTAEHLAAEAMAADMDPWLVFDARTTPATELDAWLAKYPPSQVTRYGDPGSPNSEPVGWIAVYGQGYSPNSGDVQGLQAAWEALQTSGRPITPGTLRQLAITHHVLSGKWLMHLAPGFKLDHAWAGIARAVVEGRLQVAKVSPRAKEGGRQVICVYTDDFTDRLGVLEADSAIRAAGIKCLLTYKPDVYTYLGIYRANRWHLCPTLYESRFQLGGSARGSRVLDRANNVELT", "soluble on expression in E. coli": "not soluble"},
      {"sequence": "MKQFNLIATSGQGIEALVAKELNNLGYQTRTENGFVRFSGNQRDILKTNIWLRTADRIKILVGEFHTLRFDDLFESVKALPWSELINWDDQFPVMEAHSRDSQLFSVPDIQRITKKAIVEALRSQTGHEDLPETGKHVGIDIRIDKNNVRIMIDTSGESLFKRGYRTEHGGAPLKENFAAALVLLTNWFTDNPFVDPVCGSGTIPIEAALIGKNIAPGINRTFEIESWAWFDKKLSQDVREEADILAKYDQPLDISGYDIDGNMIRISKENAKKAGLYNDIAFKQLAVKDWQTDKINGILVANPPYGQRLGEIEDARQIYQQMGSIYNQMSTWSKYILTSDEKFEQFYGKKATKKRKLYNGPIRTDLYQYWGKKVR", "soluble on expression in E. coli": "not soluble"},
      {"sequence": "MGSDKIHHHHHHMKFLFIVQGEGRGHLTQAITLEEMLLRNGHEVVEVLVGESSSRILPGFFNRNIQAPVKRFISPNFLPAADNKRANLKKSFTYNLLRIPEYFRSMCYINQRIKETGAEVVINFYELLTGLTYALFRPSVPYVCVGHQYLFLHQNFEFPDKNSFELRMLRFFTKMTAVRSSKKLALSFNDMEPDRGQQVVVVPPLIRQEVTAIQPEEGNYIHGYMVNSGFADSVEEFHTIYPEVPLRFFWDKADAEEVTRIDETLSFYQIDDVKFLNGMAGCRAYATTAGFESICEAMYLGKPVLMVPAHIEQDCNAHDAMRAGAGIISDSFDLKPLLRFAGTYSPNRTFVRWVRSGERRIILELEKLAASQSAITSIPTFTNYLPI", "soluble on expression in E. coli": "not soluble"},
      {"sequence": "SMCEKVISVGQTVITKHRNTRYYSCRVMAVTSQTFYEVMFDDGSFSRDTFPEDIVSRDCLKLGPPAEGEVVQVKWPDGKLYGAKYFGSNIAHMYQVEFEDGSQIAMKREDIYTLDEELPKRVK", "soluble on expression in E. coli": "soluble"},
      {"sequence": "GPGSMCVCASDCVTPMKRDTKGKLSYDMEPAEHRLSSSRSSSCNVVMTAADELAMQINDCRSLFPCIDAGSAVASIRPTSPSGRTVVARVPWTKSTGTTQTPAPEPTRCAVEVRFGYAEGFVCDEKVYEALLPLLLENGLQGAACVVDSDVSDS", "soluble on expression in E. coli": "not soluble"},
      {"sequence": "MGSDKIHHHHHHMSEQNWTDTGRFDNKAAEWDANAIRAALADAVARAIIAHMPVGKPANALEFGCGTGLVTTRIAPHCLQLTAVDSSREMLRMLGEKIAASAIANVTPLHLDFSRPEEAAGLDRDYDFVYSSMTLHHIPDTASFLRELIGHMSPGGALAIADLDAEDGLFHNDATEKVHHGFDRTELQALLESAGFAGVSFMTAHIIEKKNREGNLKNYPVFLVTAVKPKA", "soluble on expression in E. coli": "not soluble"},
      {"sequence": "FDAIAGSISDAVVTIDADSEVVYANDEAVELTGYDRKELVGDDFAKVIPEHLRSAHFEGLDRYLRTGNRNVDWDYLELPLVTAAGDQLTVAVSFGDFERNGQWFCTGVLRDIS", "soluble on expression in E. coli": "not soluble"},
      {"sequence": "AEASADLRADAMAKDRSEEERTTEAEKNERVQKHLKALTSELANARDESKKTANDMIHAENMRLGRDKYKTLRQIRQGNTKQRIDEFESM", "soluble on expression in E. coli": "soluble"}
    ]}
  ]
}
